# From article PMC7901023
# Biological target: FOXA1-ΔHx (UniProt P35582)
# Assay: pull-down
substance,measurement,value
H3/H4 tetramers (from UniProt P84233;P62799) (complex),pull-down relative to wild-type FOXA1 (fraction of wild type),0.33
